Measurements: patent US20240358755A1 (IMMATICS BIOTECHNOLOGIES, published 2024)

B1: ETNTIEFIY (peptide)
peptide: ETNTIEFIY
B2: ASSPVILLL (peptide)
peptide: ASSPVILLL
B3: DVDIHKDLY (peptide)
peptide: DVDIHKDLY
B4: VSPDEVLALW (peptide)
peptide: VSPDEVLALW
B5: NSDLFYLLL (peptide)
peptide: NSDLFYLLL
B6: TVDKGELLY (peptide)
peptide: TVDKGELLY
B7: LIDSLLLLL (peptide)
peptide: LIDSLLLLL
B8: EAAPNIMHY (peptide)
peptide: EAAPNIMHY
B9: LNFSDVFLY (peptide)
peptide: LNFSDVFLY
B10: FSEIFQDFL (peptide)
peptide: FSEIFQDFL
B11: RADEEQASF (peptide)
peptide: RADEEQASF
B12: FTQKINSTW (peptide)
peptide: FTQKINSTW
B13: SADTAELLL (peptide)
peptide: SADTAELLL
B14: YSSEIWDLY (peptide)
peptide: YSSEIWDLY
B15: NVSFEVSLLY (peptide)
peptide: NVSFEVSLLY
B16: NSENLLVY (peptide)
peptide: NSENLLVY
B17: SHSLPAFTL (peptide)
peptide: SHSLPAFTL
B18: IYIPTNSIYKF (peptide)
peptide: IYIPTNSIYKF
B19: AYIPFPPLI (peptide)
peptide: AYIPFPPLI
B20: LYQTTIELF (peptide)
peptide: LYQTTIELF
B21: VFIPSVINL (peptide)
peptide: VFIPSVINL
B22: LYIFTTRPF (peptide)
peptide: LYIFTTRPF
B23: IYFHLNNWTI (peptide)
peptide: IYFHLNNWTI
B24: SFSLLLPYL (peptide)
peptide: SFSLLLPYL
B25: GRFWLPFNF (peptide)
peptide: GRFWLPFNF
B26: KYPTIICGF (peptide)
peptide: KYPTIICGF
B27: VQSGVPSRF (peptide)
peptide: VQSGVPSRF
B28: IFDLSDPRF (peptide)
peptide: IFDLSDPRF
B29: LHLNPGLSF (peptide)
peptide: LHLNPGLSF
B30: GEAAAARPV (peptide)
peptide: GEAAAARPV
B31: EEGRIITKW (peptide)
peptide: EEGRIITKW
B32: REVAGASAL (peptide)
peptide: REVAGASAL
B33: VEAPHLPSF (peptide)
peptide: VEAPHLPSF
B34: AEGPDHHSL (peptide)
peptide: AEGPDHHSL
B35: FDLNIGSAY (peptide)
peptide: FDLNIGSAY
B36: VEGVHFVQLL (peptide)
peptide: VEGVHFVQLL
B37: WETRLHNLW (peptide)
peptide: WETRLHNLW
B38: NQKGLISL (peptide)
peptide: NQKGLISL
B39: VANDRLSFL (peptide)
peptide: VANDRLSFL
B40: YAFRNQTL (peptide)
peptide: YAFRNQTL
B41: TILAKQNVL (peptide)
peptide: TILAKQNVL
B42: ILRTVLPSL (peptide)
peptide: ILRTVLPSL
B43: TAMTTLMAF (peptide)
peptide: TAMTTLMAF

What follows are binders tested against T1, HLA-A*01:01 (human) (assay: UV peptide exchange, anti-b2m ELISA; exchange yield grade).
T1 construct: Peptide-receptive MHC class I monomer: a UV-sensitive peptide (not specified) is cleaved and exchanged with the test peptide
Binder B1 has a peptide exchange yield of at least 75%. B2 gave a peptide exchange yield of 20 to 50%. With B3 the peptide exchange yield was at least 75%. With B4 the peptide exchange yield was 20 to 50%. For B5, the peptide exchange yield was at least 75%. With B6 the peptide exchange yield was at least 75%. With B7 the peptide exchange yield was 50 to 75%. In the case of B8, the peptide exchange yield is reported as 20 to 50%. With B9 the peptide exchange yield was 20 to 50%. For B10, the peptide exchange yield was 50 to 75%. For B11, the peptide exchange yield was 20 to 50%. With B12 the peptide exchange yield was 20 to 50%. Binder B13 has a peptide exchange yield of 20 to 50%. B14 showed a peptide exchange yield of at least 75%. B15 showed a peptide exchange yield of at least 75%. With B16 the peptide exchange yield was 50 to 75%.

The binders below were run against T2, HLA-A*24:02 (human) in the same assay as above.
T2 construct: Peptide-receptive MHC class I monomer in the UV-ligand exchange assay
B17: binds. B18: binds. B19: binds. B20: binds. B21: binds. B22: binds. B23: binds. B24: binds. B25: binds. B26: binds. B27: binds. B28: binds. B29: binds.

What follows are binders tested against HLA-B*44:05 (human) in the same assay as above.
B30: binds. B31: binds. B32: binds. B33: binds. B34: binds. B35: binds. B36: binds. B37: binds.

What follows are binders tested against T3, HLA-B*08:01 (human) in the same assay as above.
T3 construct: Peptide-receptive MHC class I monomer in the UV-ligand exchange assay
B38: binds. B39: binds. B40: binds.

Each binder was assayed against T3, HLA-B*08:01 (assay: allele assigned to HLA ligand eluted from tissue (IP, LC-MS)).
B41: binds. B42: binds. B43: binds.
